Results as given in patent US20190194253A1 (ARIEL UNIVERSITY RESEARCH AND DEVELOPMENT, published 2019).
Bridge positions count the residues as written; N and C are the ends. Ends that are not written are not given here.

Tests used:
[1] = biological target: T1, purified Integrin αvβ3 (UniProt P06756 31-992; P05106 27-718, limits assumed); assay: competitive homologous binding: varied unlabeled ALOS4 against 10 µM ALOS4-FITC on αvβ3-coated wells; competitive homologous binding, unlabeled ALOS4 against 10 µM ALOS4-FITC (panel D)
T1 construct: Purified integrin coated on 96-well plates; also called integrin alpha-v-beta3; αVβ3 integrin
Method: (§1) FIGS. 12A-12D illustrate selective binding of ALOS4 to αvβ3. (A) ALOS4-FITC binding in wells pre-coated with integrin αvβ3. […] (B) ALOS4-FITC binding in wells coated with collagen or BSA. (C) Binding of random, FTIC-labeled cyclic peptide controls (DPDFP and DSLFP) in wells pre-coated with integrin αvβ3. (D) Competitive homologous binding of ALOS4 to αvβ3 integrin. 10 μM of ALOS4-FITC peptide was incubated with different concentrations of unlabeled ALOS4 on wells pre-coated with αvβ3. […] Data are expressed as percent reduction of maximal fluorescence signal.
(§2) Binding assay: The binding of peptides to immobilized purified integrin alpha-v-beta3 was evaluated using a fluorescein (FITC) labeled peptides. Purified integrin alpha-v-beta3 was first immobilized onto high-protein binding 96-well plates for 2 hour at 37° C. followed by blocking for two hours with 5% fat dry milk in TBS. After that, plates were washed four times with 200 μl TBS. a) For saturation assays plates were incubated with 100 μl of FITC-labeled peptides solutions in 0.01% BSA in Saline for 30 min at RT. […] After second wash 100 μl of TBS was added to the each well and fluorescence signal was read at excitation 490 nm and emission 525 nm using Enspire Plate reader (PerkinElmer). […]

[2] = biological target: T2, bovine serum albumin (bovine, UniProt P02769 25-607); assay: ALOS4-FITC in wells coated with BSA, % of total binding
T2 construct: Control protein coated on wells; also called BSA
Method: as §1, §2

[3] = biological target: T1, purified Integrin αvβ3; assay: saturation binding of ALOS4-FITC in wells pre-coated with integrin αvβ3, fluorescence, nonlinear regression; direct saturation binding of ALOS4-FITC on αvβ3-coated wells (panel A)
Method: as §1, §2

[4] = biological target: T1, purified Integrin αvβ3; assay: saturation binding: ALOS4-FITC in wells pre-coated with integrin αvβ3, % of total binding
Method: as §1, §2

[5] = biological target: T2, bovine serum albumin; assay: FITC-labeled peptide added for 30 min to BSA-coated wells, fluorescence plate reader
Method: FIG. 7 is a graph illustrating binding of Fluorescein (FITC)—labeled ALOS peptides to purified Integrin αvβ3, collagen (CG) and bovine serum albumin (BSA). Peptides (concentrations 100 uM, 30 uM, 10 uM, luM) were added to integrin pre-coated wells for 30 min. The fluorescence was measured using Enspire plate reader (PerkinElmer). The plots were built using nonlinear regression analysis (GraphPad Prism).
Binding assay: The binding of peptides to immobilized purified integrin alpha-v-beta3 was evaluated using a fluorescein (FITC) labeled peptides. Purified integrin alpha-v-beta3 was first immobilized onto high-protein binding 96-well plates for 2 hour at 37° C. followed by blocking for two hours with 5% fat dry milk in TBS. After that, plates were washed four times with 200 μl TBS. a) For saturation assays plates were incubated with 100 μl of FITC-labeled peptides solutions in 0.01% BSA in Saline for 30 min at RT. B) For competition assays plates were incubated with different concentrations of unlabeled peptides for 30 min in RT followed by addition of fixed concentration of FITC-labeled peptides and additional incubation for 30 min. Wells were washed twice with TBS. After second wash 100 μl of TBS was added to the each well and fluorescence signal was read at excitation 490 nm and emission 525 nm using Enspire Plate reader (PerkinElmer). Binding data analysis was performed using Prism software (GraphPad Software, San Diego, Calif.). Binding curves were fit using nonlinear regression approaches.

[6] = biological target: T2, bovine serum albumin; assay: FITC-peptide saturation binding on coated wells, fluorescence plate reader

T1 sequence (P06756 31-992 limits assumed, chain 1 of 2): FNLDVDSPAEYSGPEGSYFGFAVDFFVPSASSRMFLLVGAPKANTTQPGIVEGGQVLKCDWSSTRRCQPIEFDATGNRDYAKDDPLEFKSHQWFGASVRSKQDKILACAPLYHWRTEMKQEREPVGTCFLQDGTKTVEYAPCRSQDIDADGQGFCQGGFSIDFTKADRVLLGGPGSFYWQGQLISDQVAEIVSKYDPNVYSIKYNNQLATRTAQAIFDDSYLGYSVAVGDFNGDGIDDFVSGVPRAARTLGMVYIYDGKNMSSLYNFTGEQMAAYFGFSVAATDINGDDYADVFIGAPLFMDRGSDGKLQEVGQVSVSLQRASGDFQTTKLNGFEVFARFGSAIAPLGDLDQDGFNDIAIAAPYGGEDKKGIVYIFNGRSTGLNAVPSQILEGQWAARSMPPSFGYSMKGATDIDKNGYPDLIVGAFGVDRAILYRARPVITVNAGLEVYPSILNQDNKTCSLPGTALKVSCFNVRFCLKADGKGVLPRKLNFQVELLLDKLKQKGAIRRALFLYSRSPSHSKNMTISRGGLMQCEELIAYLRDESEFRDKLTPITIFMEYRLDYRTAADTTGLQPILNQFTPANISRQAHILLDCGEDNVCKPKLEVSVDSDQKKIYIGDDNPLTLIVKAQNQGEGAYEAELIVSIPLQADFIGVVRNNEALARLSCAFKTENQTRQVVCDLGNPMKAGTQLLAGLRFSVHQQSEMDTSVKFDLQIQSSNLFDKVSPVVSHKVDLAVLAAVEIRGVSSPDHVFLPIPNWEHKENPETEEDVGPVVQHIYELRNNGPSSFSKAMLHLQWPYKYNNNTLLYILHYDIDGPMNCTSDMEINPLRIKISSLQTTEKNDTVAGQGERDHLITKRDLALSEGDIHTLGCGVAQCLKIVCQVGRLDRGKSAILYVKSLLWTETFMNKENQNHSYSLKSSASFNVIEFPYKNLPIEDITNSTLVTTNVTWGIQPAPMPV
T1 sequence (P05106 27-718 limits assumed, chain 2 of 2): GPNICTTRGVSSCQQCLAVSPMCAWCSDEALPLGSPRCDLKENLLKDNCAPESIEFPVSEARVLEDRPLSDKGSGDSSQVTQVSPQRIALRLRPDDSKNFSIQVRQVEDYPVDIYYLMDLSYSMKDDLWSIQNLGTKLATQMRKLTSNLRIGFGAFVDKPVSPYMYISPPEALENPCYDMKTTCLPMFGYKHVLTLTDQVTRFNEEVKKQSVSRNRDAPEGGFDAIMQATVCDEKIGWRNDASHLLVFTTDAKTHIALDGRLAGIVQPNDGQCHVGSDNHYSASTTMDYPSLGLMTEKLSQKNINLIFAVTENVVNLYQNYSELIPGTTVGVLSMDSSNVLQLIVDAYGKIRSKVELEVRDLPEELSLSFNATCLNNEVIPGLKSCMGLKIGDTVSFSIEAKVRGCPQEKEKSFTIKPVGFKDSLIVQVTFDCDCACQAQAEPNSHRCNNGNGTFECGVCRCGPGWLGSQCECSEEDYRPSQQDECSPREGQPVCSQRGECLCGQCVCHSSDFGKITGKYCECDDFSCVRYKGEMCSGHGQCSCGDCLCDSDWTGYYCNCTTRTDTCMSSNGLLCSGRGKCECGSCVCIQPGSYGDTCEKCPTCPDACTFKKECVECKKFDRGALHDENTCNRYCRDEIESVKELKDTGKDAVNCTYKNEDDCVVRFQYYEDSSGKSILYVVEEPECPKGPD
T2 sequence (P02769 25-607 limits assumed): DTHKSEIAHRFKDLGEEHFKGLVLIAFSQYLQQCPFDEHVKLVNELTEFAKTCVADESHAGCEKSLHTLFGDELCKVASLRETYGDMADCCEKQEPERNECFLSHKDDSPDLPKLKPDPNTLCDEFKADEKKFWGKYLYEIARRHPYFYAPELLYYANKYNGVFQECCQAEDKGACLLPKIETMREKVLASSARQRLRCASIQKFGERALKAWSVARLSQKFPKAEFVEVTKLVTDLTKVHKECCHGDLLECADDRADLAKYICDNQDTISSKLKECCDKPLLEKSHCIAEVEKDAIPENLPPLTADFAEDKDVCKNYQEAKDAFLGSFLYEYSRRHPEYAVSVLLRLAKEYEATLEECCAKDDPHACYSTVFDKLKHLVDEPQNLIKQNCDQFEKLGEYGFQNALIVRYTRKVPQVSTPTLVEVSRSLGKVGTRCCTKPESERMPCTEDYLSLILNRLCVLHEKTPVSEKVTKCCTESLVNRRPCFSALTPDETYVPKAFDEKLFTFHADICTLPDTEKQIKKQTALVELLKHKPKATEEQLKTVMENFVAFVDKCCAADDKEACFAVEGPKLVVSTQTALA

Binder: CSSAGSLFC (disulfide 1-9 (inferred), Its concentration was varied) [unlabeled ALOS4]
- Kd [1]: 2550 nM

B1: ALOS-4, fluorescein (FITC)-labeled (peptide)
peptide: CSSAGSLFC
modifications: disulfide 1-9 (inferred); also: FITC label, position not given here
notes: Synthetic peptide from the phage display screen; also called ALOS4-FITC; ALOS peptides
- binding result [2]: no binding (tested: 100 µM)
- Kd [3]: 192 nM
- EC50 (read off the curve) [4]: ~200 nM

B2: ALOS-1, fluorescein (FITC)-labeled (peptide)
peptide: CNLSSSWIC
modifications: not fully specified (bridges); cysteine pairing not given here; also: FITC label, position not given here
notes: Synthetic peptide from the phage display screen; also called ALOS peptides; ALOSs
- binding result [5]: no binding (tested: 100 µM)

B3: ALOS-5, fluorescein (FITC)-labeled (peptide)
peptide: CPLHARLPC
modifications: not fully specified (bridges); cysteine pairing not given here; also: FITC label, position not given here
notes: as for B2
- binding result [6]: no binding

B4: ALOS-2, fluorescein (FITC)-labeled (peptide)
peptide: CPPSNHLLC
modifications: not fully specified (bridges); cysteine pairing not given here; also: FITC label, position not given here
notes: as for B2
- binding result [5]: no binding (tested: 100 µM)

B5: ALOS-3, fluorescein (FITC)-labeled (peptide)
peptide: CAPSPSRLC
modifications: not fully specified (bridges); cysteine pairing not given here; also: FITC label, position not given here
notes: as for B2
- binding result [5]: no binding (tested: 100 µM)
